Assay results from patent publication US20230250415.

How the values were obtained:
[1] = test system: alpha2-TALEN-L (Platinum TALEN, TRAC exon 1); assay: cell_activity; details: half-site not delineated
[2] = test system: alpha2-TALEN-R (Platinum TALEN, TRAC exon 1); assay: cell_activity; details: half-site not delineated
[3] = 1G4 knock-in efficiency in beta-null Jurkat with alpha2-TALEN pair and modified PITCh vector
[4] = 1G4 knock-in efficiency in beta-null Jurkat with alpha2-TALEN pair and conventional PITCh vector

Sequence	activity [1, 3]	activity [2, 3]	activity [1, 4]	activity [2, 4]
GTCTGCCTATTCACCGATTGAAGATTTTGATTCAATGTGTCACAAAGTAAGGA (double strand)	3.5%	3.5%	–	–
GTCTGCCTATTCACCGATTGAAGATTTTGATTCAATGTGTCACAAAGTAAGGATTC (double strand)	–	–	3.1%	3.1%
